In US20050208048A1:

Biological target: human HLA-DR on cells (DRβ1 allele not stated) (human)
Assay: cell-based or functional assay

% Annexin V Propidium Iodide Positive, antibody at 5 µg/ml, with Z-VAD-fmk [%] | % Annexin V Propidium Iodide Positive, antibody at 5 µg/ml, without Z-VAD-fmk [%] | suppression of SEB-triggered T cell proliferation ([3H]thymidine) [%] | Binder
52.7 | 57.4 | – | murine/human chimeric DN1924 HLA-DR-specific monoclonal antibody (antibody, human IgG2, kappa) heavy: EVKLLESGGGLVQPGGSLKLSCAASGFDFSRYWMSWVRQAPGKGLEWIGEINPDSSTINYTPSLKDKFIISRDNAKNTLYLQMSKVRSEDTALYYCARQPYYYGSSYWYFDVWGAGTTVTVSSAASTKGPSVFPLAPCSRSTSESTAALGCLVKDYFPEPVTVSWNSGALTSGVHTFPAVLQSSGLYSLSSVVTVTSSNFGTQTYTCNVDHKPSNTKVDKTVERKCCVECPPCPAPPAAAPSVFLFPPKPKDTLMISRTPEVTCVVVDVSHEDPEVQFNWYVDGMEVHNAKTKPREEQFNSTFRVVSVLTVVHQDWLNGKEYKCKVSNKGLPAPIEKTISKTKGQPREPQVYTLPPSREEMTKNQVSLTCLVKGFYPSDIAVEWESNGQPENNYKTTPPMLDSDGSFFLYSKLTVDKSRWQQGNVFSCSVMHEALHNHYTQKSLSLSPGK light: ETTVTQSPASLSMAIGEKVTIRCITSTDIDDDMNWYQQKPGEPPKLLISEGNTLRPGVPSRFSSSGYGTDFVFTIENMLSEDVADYYLQSDNLPYTFGGGTKLEIKTVAAPSVFIFPPSDEQLKSGTASVVCLLNNFYPREAKVQWKVDNALQSGNSQESVTEQDSKDSTYSLSSTLTLSKADYEKHKVYACEVTHQGLSSPVTKSFNRGEC
– | – | 70 | HLA-DR-specific monoclonal antibody L243 (antibody, from another filing, V domains shown) VH: QIQLVQSGPELKKPGETVKISCKASGFTFTNYGMNWVKQAPGKGLKWMGWINTYTREPTYADDFKGRFAFSLETSASTAYLQINNLKNEDTAKYFCARDITAVVPTGFDYWGQGTTLTVSS VL: DIQMTQSPASLSVSVGETVTITCRASENIYSNLAWYRQKQGKSPQLLVFAASNLADGVPSRFSGSGSGTQYSLKINSLQSEDFGDYYCQHFWTTPWAFGGGTNLEIKR
